B1: Ab3 (antibody, human IgG2, kappa, V domains shown)
VH: QVHLVQSGAEVKKPGASVKVSCKASGYTFTSYGISWVRQAPGQGLEWMGWLSTYSGNTNYAQKLQGRVTMTTDTSTSTAYMELRSLRSDDTAVYYCARGNFYYYGMDVWGQGTTVTVSS
VL: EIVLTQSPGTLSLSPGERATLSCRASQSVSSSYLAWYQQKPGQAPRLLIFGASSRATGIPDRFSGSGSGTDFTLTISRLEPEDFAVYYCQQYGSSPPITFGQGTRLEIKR
notes: also called antibody 3
B2: Ab1 (antibody, human IgG2, lambda, V domains shown)
VH: QVQLVQSGAEVKKPGASVKVSCKASGYTFTSYDINWVRQATGQGLEWMGWMNPNSGNTDYAQKFQGRVTMTRNISISTAYIELSSLRSEDTAVYYCARDMVAANTDYYFYYGMDVWGQGTTVTVSS
VL: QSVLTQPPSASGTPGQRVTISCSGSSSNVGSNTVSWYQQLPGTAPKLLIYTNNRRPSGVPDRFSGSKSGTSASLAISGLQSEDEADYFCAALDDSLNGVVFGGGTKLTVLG
notes: also called Ab1 IgG2 WT; antibody 1
B3: Ab1 N73D IgG2 (antibody, V domains shown)
VH: QVQLVQSGAEVKKPGASVKVSCKASGYTFTSYDINWVRQATGQGLEWMGWMNPNSGNTDYAQKFQGRVTMTRDISISTAYIELSSLRSEDTAVYYCARDMVAANTDYYFYYGMDVWGQGTTVTVSS
VL: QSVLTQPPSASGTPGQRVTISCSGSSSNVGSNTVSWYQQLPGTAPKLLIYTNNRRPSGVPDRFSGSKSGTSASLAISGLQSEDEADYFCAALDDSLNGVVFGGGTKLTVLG
notes: also called Ab1 version 2
B4: Ab2 N73D IgG4P agly/IgG1 (antibody, V domains shown)
VH: QVQLVQSGAEVKKPGASVKVSCKASGYTFTSYEINWVRQATGQGLEWMGWMNPNSGYTGYAQKFQGRVTMTRDTSISTAYMEMSSLRSEDTAVYYCARDIVAANTDYYFYYGMDVWGQGTTVTVSS
VL: QSVLTQPPSASGTPGQRVTISCSGSNSNIGSNTVNWYHQLPGTAPKLLIYNINKRPSGVPDRFSGSKSGSSASLAISGLQSEDEADYYCSTWDDSLDGVVFGGGTKLTVLG
B5: Ab2 (antibody, human IgG2, lambda, V domains shown)
VH: QVQLVQSGAEVKKPGASVKVSCKASGYTFTSYEINWVRQATGQGLEWMGWMNPNSGYTGYAQKFQGRVTMTRNTSISTAYMEMSSLRSEDTAVYYCARDIVAANTDYYFYYGMDVWGQGTTVTVSS
VL: QSVLTQPPSASGTPGQRVTISCSGSNSNIGSNTVNWYHQLPGTAPKLLIYNINKRPSGVPDRFSGSKSGSSASLAISGLQSEDEADYYCSTWDDSLDGVVFGGGTKLTVLG
notes: also called Ab2 IgG2 WT; antibody 2
B6: Ab2 N73D IgG2 (antibody, V domains shown)
VH: QVQLVQSGAEVKKPGASVKVSCKASGYTFTSYEINWVRQATGQGLEWMGWMNPNSGYTGYAQKFQGRVTMTRDTSISTAYMEMSSLRSEDTAVYYCARDIVAANTDYYFYYGMDVWGQGTTVTVSS
VL: QSVLTQPPSASGTPGQRVTISCSGSNSNIGSNTVNWYHQLPGTAPKLLIYNINKRPSGVPDRFSGSKSGSSASLAISGLQSEDEADYYCSTWDDSLDGVVFGGGTKLTVLG
notes: also called Ab2 version 2
B7: Ab1 N73D IgG4P agly/IgG1 (antibody, V domains shown)
VH: QVQLVQSGAEVKKPGASVKVSCKASGYTFTSYDINWVRQATGQGLEWMGWMNPNSGNTDYAQKFQGRVTMTRDISISTAYIELSSLRSEDTAVYYCARDMVAANTDYYFYYGMDVWGQGTTVTVSS
VL: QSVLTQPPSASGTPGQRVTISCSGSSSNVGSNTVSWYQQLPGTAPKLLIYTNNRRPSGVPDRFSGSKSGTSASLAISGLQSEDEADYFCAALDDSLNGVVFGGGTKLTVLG

Legend:
[1] = biological target: T1, human OSMR expressed on cells (human, UniProt Q99650 28-979); assay: cell-based or functional assay
T1 sequence: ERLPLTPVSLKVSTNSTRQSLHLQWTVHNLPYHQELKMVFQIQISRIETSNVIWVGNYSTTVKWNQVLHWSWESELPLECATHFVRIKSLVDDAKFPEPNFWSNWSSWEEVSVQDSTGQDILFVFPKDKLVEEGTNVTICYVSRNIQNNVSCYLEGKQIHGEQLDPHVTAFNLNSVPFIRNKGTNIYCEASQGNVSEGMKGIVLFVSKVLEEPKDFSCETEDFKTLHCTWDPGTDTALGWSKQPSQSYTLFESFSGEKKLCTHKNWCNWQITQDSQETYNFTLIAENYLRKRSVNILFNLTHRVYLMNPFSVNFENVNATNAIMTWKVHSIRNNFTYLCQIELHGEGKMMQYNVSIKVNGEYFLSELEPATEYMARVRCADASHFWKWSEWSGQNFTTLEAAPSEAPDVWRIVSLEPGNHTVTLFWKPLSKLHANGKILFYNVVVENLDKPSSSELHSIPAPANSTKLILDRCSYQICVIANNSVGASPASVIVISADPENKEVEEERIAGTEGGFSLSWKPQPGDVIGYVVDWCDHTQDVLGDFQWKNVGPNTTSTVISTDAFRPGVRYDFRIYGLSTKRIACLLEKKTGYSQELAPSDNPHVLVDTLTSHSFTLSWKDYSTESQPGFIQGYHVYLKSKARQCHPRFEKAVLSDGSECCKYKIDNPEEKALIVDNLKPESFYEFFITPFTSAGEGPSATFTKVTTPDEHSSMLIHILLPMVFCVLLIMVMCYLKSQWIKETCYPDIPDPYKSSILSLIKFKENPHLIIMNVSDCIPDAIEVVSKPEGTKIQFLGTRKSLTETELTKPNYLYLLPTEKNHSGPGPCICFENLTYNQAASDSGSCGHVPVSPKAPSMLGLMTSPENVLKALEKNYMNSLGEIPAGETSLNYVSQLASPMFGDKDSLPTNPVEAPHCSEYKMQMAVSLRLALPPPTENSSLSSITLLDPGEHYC

[2] = biological target: T2, cynomologus OSMR expressed on cells (cynomologus monkey (Macaca fascicularis), UniProt Q99650 28-978 (human entry)); assay: cell-based or functional assay
T2 chain: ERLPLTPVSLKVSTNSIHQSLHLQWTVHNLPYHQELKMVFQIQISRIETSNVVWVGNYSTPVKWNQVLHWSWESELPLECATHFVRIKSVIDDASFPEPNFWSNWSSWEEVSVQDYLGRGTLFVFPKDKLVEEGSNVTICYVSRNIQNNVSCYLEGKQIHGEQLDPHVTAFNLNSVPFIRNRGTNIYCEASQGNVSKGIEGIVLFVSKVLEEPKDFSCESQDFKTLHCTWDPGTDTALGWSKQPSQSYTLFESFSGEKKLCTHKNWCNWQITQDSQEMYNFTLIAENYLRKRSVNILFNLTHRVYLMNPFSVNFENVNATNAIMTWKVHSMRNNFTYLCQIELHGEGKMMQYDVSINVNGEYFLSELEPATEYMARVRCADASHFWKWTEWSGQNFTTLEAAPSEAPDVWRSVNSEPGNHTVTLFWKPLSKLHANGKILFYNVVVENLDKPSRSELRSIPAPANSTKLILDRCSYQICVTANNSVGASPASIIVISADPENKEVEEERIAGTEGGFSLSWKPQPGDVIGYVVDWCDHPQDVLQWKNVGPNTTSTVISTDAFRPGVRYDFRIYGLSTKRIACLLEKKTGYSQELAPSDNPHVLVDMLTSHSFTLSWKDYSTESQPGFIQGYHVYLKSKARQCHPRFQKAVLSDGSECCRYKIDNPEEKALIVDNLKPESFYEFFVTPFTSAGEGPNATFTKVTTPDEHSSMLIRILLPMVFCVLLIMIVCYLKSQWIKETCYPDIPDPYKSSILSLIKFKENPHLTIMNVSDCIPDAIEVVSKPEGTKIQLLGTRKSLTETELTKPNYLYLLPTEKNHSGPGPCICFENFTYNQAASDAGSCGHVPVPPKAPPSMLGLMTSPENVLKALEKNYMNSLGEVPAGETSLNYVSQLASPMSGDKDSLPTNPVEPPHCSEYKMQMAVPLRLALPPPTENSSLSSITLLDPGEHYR

[3] = biological target: T3, hOSMR.FH (human, UniProt Q99650 28-740); assay: SPR, Biacore 3000, antibody captured by anti-human IgG, hOSMR.FH analyte, 25 C
T3 construct: also called huOSMR
T3 sequence: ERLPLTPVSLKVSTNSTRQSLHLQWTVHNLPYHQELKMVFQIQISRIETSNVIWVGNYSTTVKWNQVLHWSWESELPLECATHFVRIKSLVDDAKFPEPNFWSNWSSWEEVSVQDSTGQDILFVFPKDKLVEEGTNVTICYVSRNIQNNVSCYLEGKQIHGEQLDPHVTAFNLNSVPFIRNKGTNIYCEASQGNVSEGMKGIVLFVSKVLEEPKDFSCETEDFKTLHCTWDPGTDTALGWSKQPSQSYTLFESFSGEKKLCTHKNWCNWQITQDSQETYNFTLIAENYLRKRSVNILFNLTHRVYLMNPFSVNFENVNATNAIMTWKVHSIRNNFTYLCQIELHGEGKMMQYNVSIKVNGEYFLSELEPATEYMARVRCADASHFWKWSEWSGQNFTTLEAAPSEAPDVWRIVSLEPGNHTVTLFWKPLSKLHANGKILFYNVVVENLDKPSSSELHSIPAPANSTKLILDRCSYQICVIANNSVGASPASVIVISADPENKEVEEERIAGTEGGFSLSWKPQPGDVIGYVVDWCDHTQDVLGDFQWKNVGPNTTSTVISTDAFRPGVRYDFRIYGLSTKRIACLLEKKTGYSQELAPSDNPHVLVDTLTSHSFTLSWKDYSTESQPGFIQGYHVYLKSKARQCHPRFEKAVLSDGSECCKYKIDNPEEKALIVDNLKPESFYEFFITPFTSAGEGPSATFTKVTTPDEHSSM
Procedure: Biosensor analysis was conducted at 25 C in a HBS-EP+(1×) buffer system (10 mM HEPES pH 7.4, 150 mM NaCl, 3.0 mM EDTA, 0.05% Surfactant P20) using a Biacore 3000 optical biosensor equipped with a CM5 sensor chip. All reagents were kept at 8° C. prior to injection. […] Antibodies 1-3 were diluted (0.25 to 0.5 μg/mL) in running buffer. The antibodies were injected (15 μL) over Flow Cell 2 at a flow rate of 10 μL/min. About 50 RU of antibody was captured. […] Samples were run in duplicate and in random order.
Buffer analyte blanks (0 nM hOSMR) were injected before, in-between, and after sample injections. Antibodies were injected (15 μL) over Flow Cell 2 at a flow rate of 10 μL/min. About 50 RU of antibody was captured. […] The samples were run in triplicate.
Data was analyzed with Scrubber 2.0 software as follows. Data from Flow Cell 2 was subtracted from the data from Flow Cell I (blank reference). The reference subtracted data (2-1) was then subtracted (double referenced) from the nearest 0 nM concentration data. The double referenced long dissociation data was fit to a 1:1 binding model to determine the dissociation rate constant (kd). This dissociation rate constant was used as a fixed parameter to fit the double referenced short dissociation data to a 1:1 binding model in order to determine the association rate constant (ka) and the equilibrium dissociation constant (Kd).

[4] = biological target: T4, OSMR (UniProt Q99650 28-740); assay: Sandwich ELISA (solution phase format)
T4 sequence (looked up): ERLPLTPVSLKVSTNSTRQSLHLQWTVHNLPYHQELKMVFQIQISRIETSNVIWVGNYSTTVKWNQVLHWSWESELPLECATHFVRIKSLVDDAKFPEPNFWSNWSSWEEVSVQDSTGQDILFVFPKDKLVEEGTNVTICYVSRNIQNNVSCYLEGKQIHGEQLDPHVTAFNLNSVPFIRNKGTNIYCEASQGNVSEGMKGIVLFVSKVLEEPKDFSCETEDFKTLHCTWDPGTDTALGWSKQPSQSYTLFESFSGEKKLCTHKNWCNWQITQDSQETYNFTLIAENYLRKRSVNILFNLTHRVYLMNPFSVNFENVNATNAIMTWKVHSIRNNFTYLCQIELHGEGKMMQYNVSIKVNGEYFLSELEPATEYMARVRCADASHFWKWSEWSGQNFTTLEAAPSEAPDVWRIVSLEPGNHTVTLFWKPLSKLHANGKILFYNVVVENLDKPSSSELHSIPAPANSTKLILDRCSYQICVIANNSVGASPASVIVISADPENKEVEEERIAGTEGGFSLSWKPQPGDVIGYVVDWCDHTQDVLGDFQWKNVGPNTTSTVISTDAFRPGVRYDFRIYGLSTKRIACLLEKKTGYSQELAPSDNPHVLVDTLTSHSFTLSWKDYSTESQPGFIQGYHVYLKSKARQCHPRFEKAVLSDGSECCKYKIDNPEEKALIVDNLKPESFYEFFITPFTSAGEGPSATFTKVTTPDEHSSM

[5] = biological target: T4, OSMR; assay: Capture ELISA (avidity-less format)
[6] = biological target: T4, OSMR; assay: Direct ELISA (solid state avidity format)
[7] = biological target: T5, Soluble OSMR (UniProt Q99650 28-740); assay: BIAcore, antibody immobilized on CM4 chip, soluble OSMR analyte
T5 sequence (looked up): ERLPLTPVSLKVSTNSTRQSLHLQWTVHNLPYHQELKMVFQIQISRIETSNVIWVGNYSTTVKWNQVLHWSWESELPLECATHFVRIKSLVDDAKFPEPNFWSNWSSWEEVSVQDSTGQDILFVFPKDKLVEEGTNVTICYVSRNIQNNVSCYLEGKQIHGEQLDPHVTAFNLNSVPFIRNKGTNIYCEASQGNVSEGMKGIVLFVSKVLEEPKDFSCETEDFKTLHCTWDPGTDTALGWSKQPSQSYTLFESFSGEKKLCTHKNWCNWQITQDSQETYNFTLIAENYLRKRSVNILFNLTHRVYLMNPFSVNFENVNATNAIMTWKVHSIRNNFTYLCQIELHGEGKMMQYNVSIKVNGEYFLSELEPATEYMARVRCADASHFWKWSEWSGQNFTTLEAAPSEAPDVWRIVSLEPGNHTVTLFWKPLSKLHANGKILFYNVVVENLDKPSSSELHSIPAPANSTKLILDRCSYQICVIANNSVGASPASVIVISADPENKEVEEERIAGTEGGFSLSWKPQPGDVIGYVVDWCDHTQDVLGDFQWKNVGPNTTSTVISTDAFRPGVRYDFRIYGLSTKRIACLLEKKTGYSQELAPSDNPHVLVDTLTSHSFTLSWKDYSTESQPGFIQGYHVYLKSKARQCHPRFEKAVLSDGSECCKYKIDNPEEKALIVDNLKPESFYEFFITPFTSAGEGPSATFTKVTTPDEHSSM
Procedure: Binding studies were performed using the BIAcore method. Antibodies containing the variable regions of Ab1 or Ab2 (or the N73D variant of Ab1 or Ab2) with different Fe regions were immobilized on a CM4 chip (GE lifesciences) as per manufacturer's protocols. Soluble OSMR was used as the analyte.

Binder | IC50, IL-31-induced proliferation of BaF3 cells expressing human IL-31RA4 and OSMR [1] [nM] | IC50, OSM-induced STAT3 nuclear translocation in primary normal human lung fibroblasts [1] [nM] | IC50, cyno IL-31-induced proliferation of BaF3 cells overexpressing cyno IL-31RA and OSMR [2] [nM] | IC50, cyno OSM-induced STAT3 nuclear translocation in a primary kidney epithelial cell line [2] [nM] | Kd [3] [nM] | koff [3] [s⁻¹] | kon [3] [M⁻¹ s⁻¹] | EC50 [4] [nM] | EC50 [5] [nM] | EC50 [6] [nM] | Kd [7] [nM] | koff [7] [s⁻¹] | kon [7] [M⁻¹ s⁻¹]
B1 | 0.78 | 1.35 | 6.87 | 1.24 | 1.08 | 0.000102 | 94700 | – | – | – | – | – | –
B2 | 0.0352 | 0.157 | 0.225 | 1.26 | 0.221 | 9.95e-05 | 447000 | 0.581 | 10.2 | 0.184 | 0.913 | 0.00015 | 164000
B3 | – | – | – | – | – | – | – | 0.359 | 4.85 | 0.0728 | 0.675 | 0.000168 | 249000
B4 | – | – | – | – | – | – | – | 0.064 | 1.61 | 0.0558 | – | – | –
B5 | 0.0276 | 0.252 | 0.0293 | 0.518 | 0.0327 | 1.81e-05 | 550000 | 0.366 | 3.63 | 0.182 | 1.01 | 0.000189 | 188000
B6 | – | – | – | – | – | – | – | 0.343 | 5.49 | 0.179 | 0.289 | 4.99e-05 | 173000
B7 | – | – | – | – | – | – | – | 0.05 | 2.86 | 0.0626 | – | – | –

Reference: patent US20160137739A1 (KINIKSA PHARMACEUTICALS, published 2016)
